# Earlier results as cited in PMC9980337.
# Where “and” joins values, the source holds several entries; their conditions need not be identical. Equal values may be shown once.
# Molecular target: IL-18 (Homo sapiens) (UniProt Q14116)
# Sequence (Q14116 37-193): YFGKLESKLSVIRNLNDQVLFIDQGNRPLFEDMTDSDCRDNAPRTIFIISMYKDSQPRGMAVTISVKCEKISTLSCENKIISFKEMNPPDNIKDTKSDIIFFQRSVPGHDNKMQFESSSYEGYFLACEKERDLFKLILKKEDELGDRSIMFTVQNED
# Sequence of IL-18BP (O95998 31-194): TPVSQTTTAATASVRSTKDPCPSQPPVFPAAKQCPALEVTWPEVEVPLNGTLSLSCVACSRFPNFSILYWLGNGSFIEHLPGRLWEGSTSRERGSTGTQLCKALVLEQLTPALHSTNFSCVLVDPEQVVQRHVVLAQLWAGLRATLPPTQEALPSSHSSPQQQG
substance,measurement,value
IL-18BP (from UniProt O95998),Kd,0.4 nM and 0.05 nM
